± gives the standard deviation of the averaged measurements.
Test system: ATP
Experiment: switch fluorescence ratio, 500 uM ATP over buffer (Cy3 cluster intensity, sum of 5 cycles each) (fold (ratio)); higher = stronger signal-on switching upon ATP binding; sequences stand for … in TCGTCGGCAGCGTCAGATGTGTATAAGAGACAGTTTTTTTTTTTTTTTTTTTTTTTTT…TC
Conditions: aptamer strand: ATP DNA aptamer (quencher-CACCTGGGGGAGTATTGCGGAGGAAGG + anchor), 100 nM annealed; ATP concentration: 500 uM
In short: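 Cy3-labelled switching-strand clusters on a modified Illumina MiSeq flow-cell were annealed to 100 nM quencher-labelled ATP aptamer and imaged first in selection buffer, then after 15 min with 500 uM ATP at 22 °C. NaOH stripping and re-annealing separated each of five buffer/ATP cycles, and clusters outside 100-1000 RFU were excluded. The fluorescence ratio sums target-cycle Cy3 intensity over buffer-cycle Cy3 intensity per cluster and averages it per switch-domain sequence.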
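Note: ATP exposure 15 min at 22 °C before imaging.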

Sequence: TGCGCCATTT
- switch fluorescence ratio: 1.13 ± 0.26

Sequence: TGCGCTGTA
- switch fluorescence ratio: 1.02 ± 0.018

Sequence: TGCGCTTATA
- switch fluorescence ratio: 1.09 ± 0.015

Sequence: TGCGCTTGTG
- switch fluorescence ratio: 0.97 ± 0.025

Sequence: TGCGGAATAT
- switch fluorescence ratio: 1.14 ± 0.064

Sequence: TGCGGATATG
- switch fluorescence ratio: 0.982 ± 0.023

Sequence: TGCGGATGGT
- switch fluorescence ratio: 0.98 ± 0.016

Sequence: TGCGGGCGGC
- switch fluorescence ratio: 0.98 ± 0.024

Sequence: TGCGGGGAGA
- switch fluorescence ratio: 1.02 ± 0.024

Sequence: TGCGGGGCGG
- switch fluorescence ratio: 1.02 ± 0.034

Sequence: TGCGGGGGG
- switch fluorescence ratio: 0.9855 ± 0.0037

Sequence: TGCGGGGGGT
- switch fluorescence ratio: 1.025 ± 0.0086

Sequence: TGCGGGGGTC
- switch fluorescence ratio: 1.04 ± 0.088

Sequence: TGCGGGTGAT
- switch fluorescence ratio: 0.9857 ± 0.004

Sequence: TGCGGGTTAA
- switch fluorescence ratio: 1.02 ± 0.024

Sequence: TGCGGGTTTC
- switch fluorescence ratio: 1.04 ± 0.017

Sequence: TGCGGTAAA
- switch fluorescence ratio: 1.09 ± 0.14

Sequence: TGCGGTATGT
- switch fluorescence ratio: 1.019 ± 0.0014

Sequence: TGCGGTGATG
- switch fluorescence ratio: 0.985 ± 0.016

Sequence: TGCGGTGTAG
- switch fluorescence ratio: 1.01 ± 0.011

Sequence: TGCGTAGAGG
- switch fluorescence ratio: 1.037 ± 0.006

Sequence: TGCGTATATT
- switch fluorescence ratio: 0.98 ± 0.017

Sequence: TGCGTCAACT
- switch fluorescence ratio: 1.01 ± 0.023

Sequence: TGCGTCAGCC
- switch fluorescence ratio: 1.04 ± 0.12

Sequence: TGCGTCTATT
- switch fluorescence ratio: 1.05 ± 0.078

Sequence: TGCGTTGCGG
- switch fluorescence ratio: 0.978 ± 0.029

Sequence: TGCTAAAGGG
- switch fluorescence ratio: 0.984 ± 0.036

Sequence: TGCTAAATTG
- switch fluorescence ratio: 1.015 ± 0.0015

Sequence: TGCTACAAGG
- switch fluorescence ratio: 1.03 ± 0.011

Sequence: TGCTAGCCGG
- switch fluorescence ratio: 1 ± 0.015

Sequence: TGCTAGCCTG
- switch fluorescence ratio: 0.9955 ± 0.004

Sequence: TGCTAGGCG
- switch fluorescence ratio: 1.02 ± 0.032

Sequence: TGCTAGTGGT
- switch fluorescence ratio: 1.01 ± 0.016

Sequence: TGCTATATGT
- switch fluorescence ratio: 0.993 ± 0.013

Sequence: TGCTATCATC
- switch fluorescence ratio: 0.989 ± 0.02

Sequence: TGCTCCTTGC
- switch fluorescence ratio: 1.08 ± 0.062

Sequence: TGCTCGGGGG
- switch fluorescence ratio: 1.15 ± 0.17

Sequence: TGCTCTGCTA
- switch fluorescence ratio: 1.683 ± 0.0023

Sequence: TGCTCTTAGT
- switch fluorescence ratio: 1.04 ± 0.079

Sequence: TGCTGAAAAC
- switch fluorescence ratio: 0.974 ± 0.028

Sequence: TGCTGAAGGG
- switch fluorescence ratio: 1.04 ± 0.03

Sequence: TGCTGGATGG
- switch fluorescence ratio: 0.975 ± 0.032

Sequence: TGCTGGGGCT
- switch fluorescence ratio: 0.9847 ± 0.0033

Sequence: TGCTGTCGGC
- switch fluorescence ratio: 1.03 ± 0.029

Sequence: TGCTGTTTTT
- switch fluorescence ratio: 0.98095 ± 0.00061

Sequence: TGCTTAACAT
- switch fluorescence ratio: 1.01 ± 0.019

Sequence: TGCTTATCGC
- switch fluorescence ratio: 0.995 ± 0.024

Sequence: TGCTTCAGGG
- switch fluorescence ratio: 1.03 ± 0.014

Sequence: TGCTTCCCTC
- switch fluorescence ratio: 1.1 ± 0.018

Sequence: TGCTTCTAAT
- switch fluorescence ratio: 1.02 ± 0.021

Sequence: TGCTTGAGCA
- switch fluorescence ratio: 0.974 ± 0.019

Sequence: TGCTTGCCTT
- switch fluorescence ratio: 0.9886 ± 0.0096

Sequence: TGCTTGGAGG
- switch fluorescence ratio: 0.996 ± 0.014

Sequence: TGCTTGGGGA
- switch fluorescence ratio: 0.983 ± 0.082

Sequence: TGCTTGTGGG
- switch fluorescence ratio: 1.026 ± 0.0015

Sequence: TGCTTGTTTT
- switch fluorescence ratio: 0.9912 ± 0.0038

Sequence: TGCTTTATCT
- switch fluorescence ratio: 1.012 ± 0.0023

Sequence: TGCTTTCGTC
- switch fluorescence ratio: 0.945 ± 0.031

Sequence: TGCTTTGGTT
- switch fluorescence ratio: 1.01 ± 0.055

Sequence: TGCTTTTACG
- switch fluorescence ratio: 1.04 ± 0.064

Sequence: TGGAAAACCG
- switch fluorescence ratio: 1.08 ± 0.022

Sequence: TGGAAAAGGA
- switch fluorescence ratio: 0.9626 ± 0.0095

Sequence: TGGAAAATTT
- switch fluorescence ratio: 1.01 ± 0.0059

Sequence: TGGAAAGGGA
- switch fluorescence ratio: 1.01 ± 0.044

Sequence: TGGAAATAGG
- switch fluorescence ratio: 0.981 ± 0.039

Sequence: TGGAAATCGC
- switch fluorescence ratio: 1 ± 0.04

Sequence: TGGAAATCGT
- switch fluorescence ratio: 1.07 ± 0.083

Sequence: TGGAACACCT
- switch fluorescence ratio: 1.13 ± 0.041

Sequence: TGGAACTATA
- switch fluorescence ratio: 1.02 ± 0.018

Sequence: TGGAAGGAGC
- switch fluorescence ratio: 1.07 ± 0.049

Sequence: TGGAAGGATT
- switch fluorescence ratio: 1.01 ± 0.015

Sequence: TGGAAGGGGG
- switch fluorescence ratio: 1.01 ± 0.051

Sequence: TGGAAGGGGT
- switch fluorescence ratio: 1.09 ± 0.14

Sequence: TGGAAGTGGG
- switch fluorescence ratio: 1.03 ± 0.042

Sequence: TGGAATAGGT
- switch fluorescence ratio: 0.999 ± 0.031

Sequence: TGGAATGCGG
- switch fluorescence ratio: 0.99792 ± 0.00061

Sequence: TGGAATGGGT
- switch fluorescence ratio: 0.987 ± 0.032

Sequence: TGGACCGGGC
- switch fluorescence ratio: 1 ± 0.025

Sequence: TGGACCTGAA
- switch fluorescence ratio: 1.1 ± 0.038

Sequence: TGGACGGCGC
- switch fluorescence ratio: 1.04 ± 0.016

Sequence: TGGACTCGGA
- switch fluorescence ratio: 1.03 ± 0.071

Sequence: TGGACTTGGG
- switch fluorescence ratio: 0.983 ± 0.023

Sequence: TGGAGAATTT
- switch fluorescence ratio: 1.02 ± 0.044

Sequence: TGGAGCCTGG
- switch fluorescence ratio: 0.984 ± 0.021

Sequence: TGGAGCGAGG
- switch fluorescence ratio: 1.02 ± 0.00015

Sequence: TGGAGGACTA
- switch fluorescence ratio: 1.14 ± 0.13

Sequence: TGGAGGAGGA
- switch fluorescence ratio: 0.982 ± 0.025

Sequence: TGGAGGGCTA
- switch fluorescence ratio: 0.97 ± 0.032

Sequence: TGGAGGGTGG
- switch fluorescence ratio: 1.01 ± 0.019

Sequence: TGGAGGTGTG
- switch fluorescence ratio: 0.977 ± 0.01

Sequence: TGGAGTAGGA
- switch fluorescence ratio: 1.04 ± 0.051

Sequence: TGGAGTGTTC
- switch fluorescence ratio: 1.06 ± 0.011

Sequence: TGGAGTGTTT
- switch fluorescence ratio: 0.94 ± 0.021

Sequence: TGGATAGGGG
- switch fluorescence ratio: 1.03 ± 0.012

Sequence: TGGATATAGA
- switch fluorescence ratio: 1.01 ± 0.017

Sequence: TGGATCAGAG
- switch fluorescence ratio: 0.9984 ± 0.0013

Sequence: TGGATCATTT
- switch fluorescence ratio: 0.999 ± 0.022

Sequence: TGGATGACGC
- switch fluorescence ratio: 0.96 ± 0.12

Sequence: TGGATGACGG
- switch fluorescence ratio: 0.972 ± 0.13

Sequence: TGGATGGGGT
- switch fluorescence ratio: 0.973 ± 0.027

Sequence: TGGATGTTAT
- switch fluorescence ratio: 1.02 ± 0.092

Sequence: TGGATTATGA
- switch fluorescence ratio: 0.955 ± 0.011

Sequence: TGGATTCATG
- switch fluorescence ratio: 0.978 ± 0.06

Sequence: TGGATTCCTA
- switch fluorescence ratio: 1.002 ± 0.01

Sequence: TGGATTCTCT
- switch fluorescence ratio: 0.997 ± 0.017

Sequence: TGGATTGACT
- switch fluorescence ratio: 1.058 ± 0.0013

Sequence: TGGATTTAGA
- switch fluorescence ratio: 1.02 ± 0.017

Sequence: TGGATTTCGG
- switch fluorescence ratio: 1.016 ± 0.0065

Sequence: TGGATTTGCA
- switch fluorescence ratio: 1.03 ± 0.022

Sequence: TGGATTTGGG
- switch fluorescence ratio: 0.9969 ± 0.0066

Sequence: TGGATTTGTC
- switch fluorescence ratio: 0.99 ± 0.024

Sequence: TGGATTTTCA
- switch fluorescence ratio: 0.989 ± 0.03

Sequence: TGGCAAAATG
- switch fluorescence ratio: 0.9915 ± 0.0088

Sequence: TGGCAATTTG
- switch fluorescence ratio: 1 ± 0.033

Sequence: TGGCACCATT
- switch fluorescence ratio: 1.06 ± 0.047

Sequence: TGGCAGACGG
- switch fluorescence ratio: 1.01 ± 0.038

Sequence: TGGCAGAGGG
- switch fluorescence ratio: 1 ± 0.044

Sequence: TGGCAGGGGG
- switch fluorescence ratio: 0.945 ± 0.029

Sequence: TGGCAGGGTC
- switch fluorescence ratio: 0.9774 ± 0.0077

Sequence: TGGCATTCGT
- switch fluorescence ratio: 0.9757 ± 0.0091

Sequence: TGGCCACTTA
- switch fluorescence ratio: 1.073 ± 0.0058

Sequence: TGGCCAGCTC
- switch fluorescence ratio: 0.975 ± 0.016

Sequence: TGGCCATAGG
- switch fluorescence ratio: 0.999 ± 0.041

Sequence: TGGCCCGGGC
- switch fluorescence ratio: 1.02 ± 0.017

Sequence: TGGCCGCGGA
- switch fluorescence ratio: 1.01 ± 0.03

Sequence: TGGCCGTATT
- switch fluorescence ratio: 1 ± 0.056

Sequence: TGGCCTCATC
- switch fluorescence ratio: 1.02 ± 0.058

Sequence: TGGCCTGCTG
- switch fluorescence ratio: 0.9919 ± 0.0026

Sequence: TGGCCTGGGA
- switch fluorescence ratio: 1.026 ± 0.0056

Sequence: TGGCGATTTT
- switch fluorescence ratio: 0.978 ± 0.048

Sequence: TGGCGCATTC
- switch fluorescence ratio: 1.3 ± 0.15

Sequence: TGGCGCCACT
- switch fluorescence ratio: 0.976 ± 0.013

Sequence: TGGCGCCGAT
- switch fluorescence ratio: 0.9608 ± 0.0026

Sequence: TGGCGCCGGG
- switch fluorescence ratio: 0.9958 ± 0.0091

Sequence: TGGCGCTTGT
- switch fluorescence ratio: 0.978 ± 0.028

Sequence: TGGCGGAAGG
- switch fluorescence ratio: 0.999 ± 0.044

Sequence: TGGCGGACGT
- switch fluorescence ratio: 1 ± 0.0081

Sequence: TGGCGGAGTC
- switch fluorescence ratio: 1 ± 0.022

Sequence: TGGCGGCCAC
- switch fluorescence ratio: 1.04 ± 0.15

Sequence: TGGCGGGGTT
- switch fluorescence ratio: 0.986 ± 0.022

Sequence: TGGCGGTACG
- switch fluorescence ratio: 1.02 ± 0.069

Sequence: TGGCGGTTGC
- switch fluorescence ratio: 0.955 ± 0.013

Sequence: TGGCGTTGAT
- switch fluorescence ratio: 0.984 ± 0.019

Sequence: TGGCGTTTGG
- switch fluorescence ratio: 1 ± 0.015

Sequence: TGGCGTTTTT
- switch fluorescence ratio: 1.01 ± 0.023

Sequence: TGGCTGGAAG
- switch fluorescence ratio: 0.988 ± 0.027

Sequence: TGGCTGGGTT
- switch fluorescence ratio: 1 ± 0.054

Sequence: TGGCTTACAT
- switch fluorescence ratio: 1.0268 ± 0.00039

Sequence: TGGCTTAGGA
- switch fluorescence ratio: 0.979 ± 0.012

Sequence: TGGCTTATTT
- switch fluorescence ratio: 0.988 ± 0.031

Sequence: TGGCTTTGCT
- switch fluorescence ratio: 0.962 ± 0.015

Sequence: TGGCTTTGGA
- switch fluorescence ratio: 0.988 ± 0.022

Sequence: TGGCTTTGTT
- switch fluorescence ratio: 0.9888 ± 0.0041

Sequence: TGGCTTTTAT
- switch fluorescence ratio: 0.95149 ± 0.00041

Sequence: TGGCTTTTTG
- switch fluorescence ratio: 0.9898 ± 0.0035

Sequence: TGGCTTTTTT
- switch fluorescence ratio: 0.998 ± 0.027

Sequence: TGGGAAAAAC
- switch fluorescence ratio: 1.09 ± 0.1

Reference: the supplement of paper PMC10126150
